Assay results as given in patent publication US20100305031A1 (Daiichi Sankyo, published 2010).
Bridges are numbered along the chain shown (N, C = ends). Where no end group is shown, it is not given here.

molecular target: human type recombinant neutral endopeptidase (hNEP, manufactured by R&D Systems, Inc., U.S.A.) (human, UniProt P08473 52-750); assay: cell-based or functional assay
Sequence (P08473 52-750 limits assumed): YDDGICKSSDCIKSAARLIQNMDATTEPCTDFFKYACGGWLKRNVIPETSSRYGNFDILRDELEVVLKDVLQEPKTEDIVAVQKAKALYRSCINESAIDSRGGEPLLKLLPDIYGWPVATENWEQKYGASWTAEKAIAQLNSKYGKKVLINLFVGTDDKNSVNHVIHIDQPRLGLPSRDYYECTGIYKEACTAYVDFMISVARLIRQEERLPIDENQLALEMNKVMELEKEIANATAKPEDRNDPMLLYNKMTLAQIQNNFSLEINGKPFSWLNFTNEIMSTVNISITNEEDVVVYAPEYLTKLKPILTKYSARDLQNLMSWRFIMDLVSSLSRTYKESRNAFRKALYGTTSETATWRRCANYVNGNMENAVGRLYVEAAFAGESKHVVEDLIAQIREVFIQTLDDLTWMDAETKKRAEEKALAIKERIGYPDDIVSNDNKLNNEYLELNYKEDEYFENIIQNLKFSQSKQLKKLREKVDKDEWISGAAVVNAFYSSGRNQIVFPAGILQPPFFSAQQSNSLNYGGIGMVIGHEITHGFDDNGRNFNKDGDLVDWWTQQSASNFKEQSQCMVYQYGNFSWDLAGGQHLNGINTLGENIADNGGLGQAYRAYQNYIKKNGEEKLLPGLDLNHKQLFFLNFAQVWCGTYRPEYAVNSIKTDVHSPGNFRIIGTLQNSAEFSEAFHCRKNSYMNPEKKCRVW

| Binder | Residual Rate (%) of the unchanged peptide after 1 hour at 37° C. with hNEP (HPLC) |
| --- | --- |
| GLSKGCFGLKLDRIGSMSGLGC (disulfide 6-22) [Native CNP-22] | 16.7% |
| CFGLKLDRIGSMSGLGCVQQRKESKKPPAKLQPR (disulfide 1-17 (inferred)) [Chimeric CNP (B)] | 83.8% |
| RPQLKAPPKKSEKRQQVCFGLKLDRIGSMSGLGC (disulfide 18-34 (inferred)) [Chimeric CNP (A)] | 84.3% |
